Assays:
[1] = CHX chase, Western blot, JEG3; conditions: control: untreated (respective controls)
GATA3 Western blot, JEG3 = conditions: control: untreated
[2] = CHX chase, Western blot, JEG3, normoxia; conditions: glycan lost; control: WT-G plasmid
[3] = Hypoxic rise of GATA3 protein, Western blot, JEG3; conditions: glycan lost; control: WT-G plasmid, 2% vs 21% O2
[4] = GATA3 Western blot, JEG3; mRNA equal; conditions: glycan lost; control: WT-G plasmid
[5] = CHX chase, Western blot, JEG3, hypoxia; conditions: glycan lost; control: WT-G plasmid under 2% O2
[6] = GATA3 Western blot, primary human trophoblasts; conditions: glycan gained; control: DMSO
[7] = CHX chase, Western blot, primary human trophoblasts; conditions: glycan gained; control: untreated (respective controls)

## GATA3 (GATA binding protein 3): Ac45S (OGT inhibitor)
[1]; glycan lost
  degradation_or_half_life: decreases
GATA3 Western blot, JEG3; glycan lost
  expression_or_secretion: decreases

## GATA3 (GATA binding protein 3): T322A-G
[2]
  degradation_or_half_life: decreases
[3]
  expression_or_secretion: abolishes
[4]
  expression_or_secretion, fold_change: decreases
[5]
  degradation_or_half_life: changes

## GATA3 (GATA binding protein 3): TMG (OGA inhibitor)
[6]
  expression_or_secretion: increases
[1]; glycan gained
  degradation_or_half_life: increases
GATA3 Western blot, JEG3; glycan gained
  expression_or_secretion: increases
[7]
  degradation_or_half_life: increases
